Source: article PMC11666773, “Development of mirror-image monobodies targeting the oncogenic BCR::ABL1 kinase” (Nature Communications, 2024)
Non-standard residues stand in square brackets, D forms with d. *: point of attachment. 5FAM = O=C1OC2(c3ccc(O)cc3Oc3cc(O)ccc32)c2ccc(C(=O)*)cc21

Assays:
[1] = biological target: T1, D-Abl SH2 domain (synthetic mirror-image SH2 domain of human BCR::ABL1) (human, UniProt P00519-2 141-240, all residues in D-configuration); test: ITC
T1 chain: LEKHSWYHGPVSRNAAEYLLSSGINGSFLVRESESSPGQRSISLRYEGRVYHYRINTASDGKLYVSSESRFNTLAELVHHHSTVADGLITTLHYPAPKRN

[2] = biological target: T2, biotinylated synthetic D-Abl SH2 domain (human, UniProt P00519-2 141-240, all residues in D-configuration; biotin (position not given)); test: FACS; yeast surface display
T2 chain: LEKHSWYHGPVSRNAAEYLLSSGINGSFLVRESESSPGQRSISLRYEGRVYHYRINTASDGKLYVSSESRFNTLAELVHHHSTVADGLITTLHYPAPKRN

[3] = biological target: T1, D-Abl SH2 domain (synthetic …); test: ITC
[4] = biological target: T3, L-Abl SH2 domain (recombinant) (human); test: ITC
T3 chain: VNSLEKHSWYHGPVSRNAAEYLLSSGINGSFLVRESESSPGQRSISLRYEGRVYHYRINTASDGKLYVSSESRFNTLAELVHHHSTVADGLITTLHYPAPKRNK

[5] = biological target: T3, L-Abl SH2 domain (recombinant); test: ITC; monobody in the syringe titrated to the SH2 domain, 20 mM HEPES pH 7.4, 150 mM NaCl, 0.5 mM TCEP-HCl, 25 °C, 1:1 binding model
[6] = biological target: the molecule itself; test: crystal structure; L-DAM21 with D-Abl SH2 A198C; 0.16 M ammonium sulfate, 0.08 M sodium acetate pH 4.6, 20% PEG 4000, 20% glycerol; 100 K
[7] = biological target: T4, D-Abl SH2 domain (synthetic mirror-image SH2 domain of human BCR::ABL1) (human, UniProt P00519-2 141-240, all residues in D-configuration); test: fluorescence polarisation; direct binding of the fluorescent D-pY peptide to D-Abl SH2 (Fig. S1); conditions not shown; conditions: both partners purified
T4 construct: Mirror-image protein; also called D-Bcr-Abl SH2; D-SH2
T4 sequence: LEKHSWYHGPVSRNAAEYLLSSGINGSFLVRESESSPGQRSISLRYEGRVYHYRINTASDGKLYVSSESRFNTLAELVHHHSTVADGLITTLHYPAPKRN

[8] = biological target: T1, D-Abl SH2 domain (synthetic …); test: ITC
[9] = biological target: D-Abl SH2 domain (synthetic mirror-image SH2 domain of human BCR::ABL1) (human) (UniProt P00519); test: ITC; monobody in the syringe titrated to the SH2 domain, 20 mM HEPES pH 7.4, 150 mM NaCl, 0.5 mM TCEP-HCl, 25 °C, 1:1 binding model

B1: L-monobody DAM30.2 (recombinant) (designed binder)
chain: MAASSVPTKLEVVAATPTSLLISWDAPAVTVDHYVITYGETGAYVSGPQEFTVPGSKSTATISGLKPGVDYTITVYAYEFYSGEYSHFSPISINYRT
[1]
  Kd: 189 nM

B2: monobody DAM27 displayed on yeast (designed binder)
chain: ASSVPTKLEVVAATPTSLLISWDAPAVTVDHYVITYGETGGGGGSQEFEVPGSKSTATISGLKPGVDYTITVYAYEFYSGEYSHFSPISINYRT
[2]
  Kd: 24 nM

B3: L-monobody DAM27 (recombinant) (designed binder)
chain: ASSVPTKLEVVAATPTSLLISWDAPAVTVDHYVITYGETGGGGGSQEFEVPGSKSTATISGLKPGVDYTITVYAYEFYSGEYSHFSPISINYRT
[3]
  Kd: 72.3 nM

B4: L-monobody DAM21 (recombinant) (designed binder)
chain: ASSVPTKLEVVAATPTSLLISWDAPAVTVDHYVITYGETGGNSPVQEFTVPGSKSTATISGLKPGVDYTITVYASDYYDGEISWYSPISINYRT
[3]
  Kd: 11.9 nM

B5: monobody DAM21 displayed on yeast (designed binder)
chain: ASSVPTKLEVVAATPTSLLISWDAPAVTVDHYVITYGETGGNSPVQEFTVPGSKSTATISGLKPGVDYTITVYASDYYDGEISWYSPISINYRT
[2]
  Kd: 20 nM

B6: L-monobody DAM30.1 (recombinant) (designed binder)
chain: MAASSVPTKLEVVAATPTSLLISWDAPAVTVDHYVITYGETGGGWYGQEFEVPGSKSTATISGLKPGVDYTITVYAYEFYSGEYSHFSPISINYRT
[1]
  Kd: 90.3 nM

B7: L-monobody DAM28 (recombinant) (designed binder)
chain: MAASSVPTKLEVVAATPTSLLISWDAPAVTVDHYVITYGETGGNSPVQEFTVPGSKSTATISGLKPGVDYTITVYAYEYWEYEYSSYSPISINYRT
[1]
  Kd: 58.9 nM

B8: monobody DAM26 displayed on yeast (designed binder)
chain: MAASSVPTKLEVVAATPTSLLISWDAPAVTVDHYVITYGETGGNSPVQEFTVPGSKSTATISGLKPGVDYTITVYAYEFYSGEYSHFSPISINYRT
[2]
  Kd: 32 nM

B9: monobody DAM28 displayed on yeast (designed binder)
chain: MAASSVPTKLEVVAATPTSLLISWDAPAVTVDHYVITYGETGGNSPVQEFTVPGSKSTATISGLKPGVDYTITVYAYEYWEYEYSSYSPISINYRT
[2]
  Kd: 68 nM

B10: L-monobody DAM26 (recombinant) (designed binder)
chain: MAASSVPTKLEVVAATPTSLLISWDAPAVTVDHYVITYGETGGNSPVQEFTVPGSKSTATISGLKPGVDYTITVYAYEFYSGEYSHFSPISINYRT
[1]
  Kd: 249 nM

B11: synthetic D-DAM27-XTEN (mirror-image monobody) (designed binder)
chain: AASSVPTKLEVVAATPTSLLISWDAPAVTVDHYVITYGETGGGGGSQEFEVPGSKSTATISGLKPGVDYTITVYAYEFYSGEYSHFSPISINYRT
modifications: all residues in D-configuration; biotin at the N-terminus
[4]
  Kd: 125 nM
[5]
  stoichiometry N: 1

B12: D-Abl SH2 A198C (synthetic D-Abl SH2 domain not desulfurized, cysteine at position 198) (domain or fragment, human)
chain: LEKHSWYHGPVSRNAAEYLLSSGINGSFLVRESESSPGQRSISLRYEGRVYHYRINTCSDGKLYVSSESRFNTLAELVHHHSTVADGLITTLHYPAPKRN
modifications: all residues in D-configuration
notes: SH2 domain of human ABL1 (BCR::ABL1); Found as a disulfide-bridged (Cys198) dimer in both crystal structures; also called D-SH2
[6]
  binding result: binds

B13: D-pY peptide 5-carboxyfluoresceine-EPQpYEEIPIYLK-CONH2 in D-configuration (peptide)
peptide: 5FAM-[dE][dP][dQ][dpY][dE][dE][dI][dP][dI][dY][dL][dK]-NH2
notes: also called D-pYEEI peptide; D-phospho tyrosine (pY) peptide; source: synthetic peptide, bought: Peptide Synthetics (UK)
[7]
  Kd: ~5000 nM

B14: synthetic L-DAM27-XTEN (designed binder)
chain: ASSVPTKLEVVAATPTSLLISWDAPAVTVDHYVITYGETGGGGGSQEFEVPGSKSTATISGLKPGVDYTITVYAYEFYSGEYSHFSPISINYRTAEGPSTAEGPSTAEGPST
modifications: biotin at the N-terminus
[8]
  Kd: 128 nM
[9]
  stoichiometry N: 1

B15: recombinant L-DAM27-XTEN (designed binder)
chain: ASSVPTKLEVVAATPTSLLISWDAPAVTVDHYVITYGETGGGGGSQEFEVPGSKSTATISGLKPGVDYTITVYAYEFYSGEYSHFSPISINYRTAEGPSTAEGPSTAEGPST
[8]
  Kd: 97.6 nM
[9]
  stoichiometry N: 1
